Data from patent US20190031733A1.

Target: Pmel-TCR (mouse)
Test: flow cytometry, APC-tetramer staining of FACS-sorted 293TREx-CD3-Pmel-TCR cells

Chain of APC-streptavidin tetramer of H-2D^b mouse MHC class I molecules loaded with the human gp100 peptide … (P01899 25-362): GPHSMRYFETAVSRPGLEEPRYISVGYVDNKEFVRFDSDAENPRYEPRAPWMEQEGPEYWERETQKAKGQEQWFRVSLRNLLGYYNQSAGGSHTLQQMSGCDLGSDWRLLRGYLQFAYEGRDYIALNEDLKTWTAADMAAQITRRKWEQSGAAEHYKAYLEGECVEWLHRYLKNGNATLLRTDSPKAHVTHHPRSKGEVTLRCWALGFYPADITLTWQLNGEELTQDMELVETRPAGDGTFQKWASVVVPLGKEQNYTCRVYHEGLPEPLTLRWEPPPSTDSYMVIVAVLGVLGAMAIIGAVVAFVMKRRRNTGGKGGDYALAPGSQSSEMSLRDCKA
Chain of Pmel-TCR (mouse) (TCR alpha, as listed by the source, form in doubt, chain 1 of 2): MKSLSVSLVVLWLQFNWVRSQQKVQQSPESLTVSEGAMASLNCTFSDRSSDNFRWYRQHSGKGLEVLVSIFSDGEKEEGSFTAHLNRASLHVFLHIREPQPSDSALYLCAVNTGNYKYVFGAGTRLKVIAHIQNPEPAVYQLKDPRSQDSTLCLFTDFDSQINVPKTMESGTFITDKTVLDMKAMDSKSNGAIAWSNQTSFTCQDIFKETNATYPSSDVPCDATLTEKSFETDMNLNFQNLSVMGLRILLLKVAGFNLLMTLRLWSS
Chain of Pmel-TCR (mouse) (TCR beta, as listed by the source, form in doubt, chain 2 of 2): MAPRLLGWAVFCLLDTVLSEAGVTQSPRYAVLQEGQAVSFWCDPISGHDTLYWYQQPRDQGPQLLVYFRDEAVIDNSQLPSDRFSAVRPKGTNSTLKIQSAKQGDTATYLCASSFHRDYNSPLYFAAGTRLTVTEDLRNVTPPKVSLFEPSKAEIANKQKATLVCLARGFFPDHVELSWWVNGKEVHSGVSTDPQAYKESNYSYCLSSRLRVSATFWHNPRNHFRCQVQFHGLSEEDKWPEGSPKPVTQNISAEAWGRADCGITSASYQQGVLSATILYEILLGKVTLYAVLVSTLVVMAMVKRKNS

## APC-streptavidin tetramer of H-2D^b mouse MHC class I molecules loaded with the human gp100 peptide … (from UniProt P01899 25-362) (peptide-MHC)
  percent of cells stained with the tetramers: 81.5%
